What was measured:
[1] = target: T1, recombinant human FcRn (ACROBiosystems Cat FCM-H8286) (human, UniProt P55899 24-297; P61769 21-119); assay: BLI (ForteBio Octet Red 96), human FcRn immobilised on SA sensors, pH 6.0 buffer, 100 nM antibody; FcRn table
T1 construct: also called human FcRn receptor

[2] = target: T2, recombinant human FcγRI protein (ACRO Biosystems, Cat. FCA-H52H1) (human, UniProt P12314 16-288, limits assumed); assay: BLI (ForteBio Octet Red 96), human FcγRI immobilised on HIS1K sensors, 100 nM antibody; FcγRI table
T2 construct: also called human FcγRI receptor

[3] = target: T2, recombinant human FcγRI protein (ACRO …); assay: BLI (ForteBio Octet Red 96), human FcγRI immobilised on HIS1K sensors, 100 nM antibody; FcγRI table, column Kdis
[4] = target: T3, Recombinant human EGFR protein (ACRO Biosystems, EGR-H5222) (human, UniProt P00533 25-645); assay: ELISA, plate coated with recombinant human EGFR at 1 µg/mL, HRP-labelled secondary antibody, OD450; EGFR panel, table under the curves (unit from the concentration axis)
T3 construct: Bought protein

[5] = target: T1, recombinant human FcRn (ACROBiosystems …); assay: BLI (ForteBio Octet Red 96), human FcRn immobilised on SA sensors, pH 6.0 buffer, 100 nM antibody; FcRn table, column Kdis

T1 sequence (P55899 24-297 limits assumed, chain 1 of 2): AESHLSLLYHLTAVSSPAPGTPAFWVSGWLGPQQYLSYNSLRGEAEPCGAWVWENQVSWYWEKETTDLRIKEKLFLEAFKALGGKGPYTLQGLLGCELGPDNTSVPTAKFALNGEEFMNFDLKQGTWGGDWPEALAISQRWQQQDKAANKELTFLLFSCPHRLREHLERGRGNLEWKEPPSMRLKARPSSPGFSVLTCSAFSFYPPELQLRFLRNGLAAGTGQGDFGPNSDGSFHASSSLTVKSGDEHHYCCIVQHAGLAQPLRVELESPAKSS
T1 sequence (P61769 21-119 limits assumed, chain 2 of 2): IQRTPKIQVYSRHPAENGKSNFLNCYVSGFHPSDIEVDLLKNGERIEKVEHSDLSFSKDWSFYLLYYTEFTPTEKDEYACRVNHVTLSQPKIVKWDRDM
T2 sequence (P12314 16-288 limits assumed): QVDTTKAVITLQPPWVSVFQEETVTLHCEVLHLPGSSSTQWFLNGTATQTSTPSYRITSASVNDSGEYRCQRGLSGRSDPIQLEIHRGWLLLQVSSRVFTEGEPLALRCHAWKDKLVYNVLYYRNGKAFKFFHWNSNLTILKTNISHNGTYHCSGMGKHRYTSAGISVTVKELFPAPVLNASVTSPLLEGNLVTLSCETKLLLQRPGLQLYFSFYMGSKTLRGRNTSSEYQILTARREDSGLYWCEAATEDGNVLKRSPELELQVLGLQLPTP

B1: Fab-Fc/Fab-Fc bispecific antibody (zalutumumab anti-EGFR A half-antibody / pertuzumab anti-HER2 B half-antibody), M1 combination (K2/H2) (bispecific antibody)
heavy 1: not shown
light 1: not shown
heavy 2: EVQLVESGGGLVQPGGSLRLSCAASGFTFTDYTMDWVRQAPGKGLEWVADVNPNSGGSIYNQRFKGRFTLSVDRSKNTLYLQMNSLRAEDTAVYYCARNLGPSFYFDYWGQGTLVTVSSASTKGPSVFPLAPSSKSTSGGTAALGCLVKDYFPEPVTVSWNSGALTSGVHTFPAVLQSSGLYSLSSVVTVPSSSLGTQTYICNVNHKPSNTKVDKKVEPKSCDKTHTCPPCPAPELLGGPSVFLFPPKPKDTLMISRTPEVTCVVVDVSHEDPEVKFNWYVDGVEVHNAKTKPREEQYNSTYRVVSVLTVLHQDWLNGKEYKCKVSNKALPAPIEKTISKAKGQPREPQVYTLPPSREEMTKNQVSLSCAVKGFYPSDIAVEWESNGQPENNYKTTPPVLRSDGSFFLVSKLTVDKSRWQQGNVFSCSVMHEALHNHYTQKSLSLSPGK
light 2: not shown
notes: No linker named between Fab and Fc; also called M1 mutant combination
Kd [1]: 14.4 nM
kon [1]: 1.82e+06 M⁻¹ s⁻¹
Kd [2]: 10 nM
kon [2]: 459000 M⁻¹ s⁻¹
koff [3]: 0.00461 s⁻¹
EC50 [4]: 0.017 µg/mL
koff [5]: 0.0261 s⁻¹

B2: Fab-Fc/Fab-Fc bispecific antibody (zalutumumab anti-EGFR A half-antibody / pertuzumab anti-HER2 B half-antibody), M3 combination (K2/H7) (bispecific antibody)
heavy 1: not shown
light 1: not shown
heavy 2: EVQLVESGGGLVQPGGSLRLSCAASGFTFTDYTMDWVRQAPGKGLEWVADVNPNSGGSIYNQRFKGRFTLSVDRSKNTLYLQMNSLRAEDTAVYYCARNLGPSFYFDYWGQGTLVTVSSASTKGPSVFPLAPSSKSTSGGTAALGCLVKDYFPEPVTVSWNSGALTSGVHTFPAVLQSSGLYSLSSVVTVPSSSLGTQTYICNVNHKPSNTKVDKKVEPKSCDKTHTCPPCPAPELLGGPSVFLFPPKPKDTLMISRTPEVTCVVVDVSHEDPEVKFNWYVDGVEVHNAKTKPREEQYNSTYRVVSVLTVLHQDWLNGKEYKCKVSNKALPAPIEKTISKAKGQPREPQVYTYPPSREEMTKNQVSLSCAVKGFYPSDIAVEWESNGQPENNYKTTPPVLRSDGSFFLVSKLTVDKSRWQQGNVFSCSVMHEALHNHYTQKSLSLSPGK
light 2: not shown
notes: No linker named between Fab and Fc; also called M3 mutant combination
Kd [1]: 17.7 nM
kon [1]: 1.55e+06 M⁻¹ s⁻¹
Kd [2]: 10.3 nM
kon [2]: 455000 M⁻¹ s⁻¹
koff [3]: 0.00471 s⁻¹
EC50 [4]: 0.0221 µg/mL
koff [5]: 0.0274 s⁻¹

B3: Fab-Fc/Fab-Fc bispecific antibody (zalutumumab anti-EGFR A half-antibody / pertuzumab anti-HER2 B half-antibody), M2 combination (K0/H8) (bispecific antibody)
heavy 1: not shown
light 1: not shown
heavy 2: EVQLVESGGGLVQPGGSLRLSCAASGFTFTDYTMDWVRQAPGKGLEWVADVNPNSGGSIYNQRFKGRFTLSVDRSKNTLYLQMNSLRAEDTAVYYCARNLGPSFYFDYWGQGTLVTVSSASTKGPSVFPLAPSSKSTSGGTAALGCLVKDYFPEPVTVSWNSGALTSGVHTFPAVLQSSGLYSLSSVVTVPSSSLGTQTYICNVNHKPSNTKVDKKVEPKSCDKTHTCPPCPAPELLGGPSVFLFPPKPKDTLMISRTPEVTCVVVDVSHEDPEVKFNWYVDGVEVHNAKTKPREEQYNSTYRVVSVLTVLHQDWLNGKEYKCKVSNKALPAPIEKTISKAKGQPREPQVYTYPPSREEMTKNQVSLSCAVKGFYPSDIAVEWESNGQPENNYKTTPPVLDSDGSFFLVSKLTVDKSRWQQGNVFSCSVMHEALHNHYTQKSLSLSPGK
light 2: not shown
notes: No linker named between Fab and Fc; also called M2 mutant combination
Kd [1]: 17.6 nM
kon [1]: 1.69e+06 M⁻¹ s⁻¹
Kd [2]: 10 nM
kon [2]: 452000 M⁻¹ s⁻¹
koff [3]: 0.00453 s⁻¹
EC50 [4]: 0.0206 µg/mL
koff [5]: 0.0296 s⁻¹

From patent publication US20260265361A1 (PHRONTLINE BIOPHARMA SUZHOU, published 2026)
